According to patent US20260209357A1:

Experiments:
Experiment in all cases: SPR, ligand directly immobilised, soluble Fcγ receptor as analyte, pH 7.3
[1] = biological target: human FcγRI (CD64) (human) (UniProt P12314)
[2] = biological target: human FcγRIIIA (CD16a) (human) (UniProt P08637)
[3] = biological target: human FcγRIIB (CD32B) (human) (UniProt P31994)
Chain of human FcγRIIB (CD32B) (human) (P31994 43-217): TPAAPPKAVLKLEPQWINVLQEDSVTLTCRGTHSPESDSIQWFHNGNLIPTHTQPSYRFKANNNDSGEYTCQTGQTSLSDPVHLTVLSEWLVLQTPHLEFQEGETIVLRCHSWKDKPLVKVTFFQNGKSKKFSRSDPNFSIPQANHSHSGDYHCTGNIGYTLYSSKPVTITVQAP

Chain of human FcγRIIIA (CD16a) (human) (P08637 17-208): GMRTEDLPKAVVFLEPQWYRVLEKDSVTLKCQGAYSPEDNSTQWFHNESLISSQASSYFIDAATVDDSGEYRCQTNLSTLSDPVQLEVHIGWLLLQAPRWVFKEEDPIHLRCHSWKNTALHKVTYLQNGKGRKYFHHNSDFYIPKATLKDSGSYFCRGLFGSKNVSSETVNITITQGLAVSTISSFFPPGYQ
Chain of human FcγRI (CD64) (human) (P12314 16-292): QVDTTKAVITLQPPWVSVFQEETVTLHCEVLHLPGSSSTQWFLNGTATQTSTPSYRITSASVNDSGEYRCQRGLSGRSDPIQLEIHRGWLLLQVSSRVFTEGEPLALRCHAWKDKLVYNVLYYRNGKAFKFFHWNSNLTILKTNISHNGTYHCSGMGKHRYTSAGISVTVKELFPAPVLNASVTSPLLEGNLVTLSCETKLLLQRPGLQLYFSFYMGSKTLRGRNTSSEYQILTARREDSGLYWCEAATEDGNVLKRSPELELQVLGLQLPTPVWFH

Kd [1]: 0.000345 µM | Kd [2]: 4.5 µM | Kd [3]: 5.8 µM
Substance: huIgG1 (antibody)
